From paper PMC9282234

Experiments:
FUS-SNAP, P35637 [1] = biological target: T1, FUS-SNAP, P35637; test: nanoparticle tracking analysis; conditions: remark: other sources report otherwise
T1 chain: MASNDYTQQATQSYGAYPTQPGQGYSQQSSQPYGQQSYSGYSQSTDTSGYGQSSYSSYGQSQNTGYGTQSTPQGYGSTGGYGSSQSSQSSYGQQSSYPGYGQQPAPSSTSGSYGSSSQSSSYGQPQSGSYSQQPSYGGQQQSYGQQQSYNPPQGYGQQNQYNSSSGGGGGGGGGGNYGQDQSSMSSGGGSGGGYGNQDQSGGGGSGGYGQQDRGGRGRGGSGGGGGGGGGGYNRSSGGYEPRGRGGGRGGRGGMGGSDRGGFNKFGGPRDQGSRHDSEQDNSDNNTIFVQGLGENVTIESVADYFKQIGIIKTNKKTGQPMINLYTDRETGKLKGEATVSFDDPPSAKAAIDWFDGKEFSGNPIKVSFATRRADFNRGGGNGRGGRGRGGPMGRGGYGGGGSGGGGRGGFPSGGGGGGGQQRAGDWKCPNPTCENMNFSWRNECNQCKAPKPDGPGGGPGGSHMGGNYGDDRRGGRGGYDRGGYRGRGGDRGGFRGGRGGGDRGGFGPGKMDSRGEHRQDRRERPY

FUS-SNAP, P35637 [2] = biological target: T1, FUS-SNAP, P35637; test: dynamic light scattering; conditions: remark: other sources report otherwise

B1: FUS-SNAP, P35637 1-526 (natural protein)
chain: T1 chain
- percent of the protein molecules in mesoscale clusters (250 nM FUS-SNAP) (FUS-SNAP, P35637 [1]): 0.15%
- stoichiometry N (molecules per cluster) (FUS-SNAP, P35637 [2]): < 10
